Values quoted from earlier work as cited in publication PMC8555654.
pKd: −log10 of the molar value.

Biological target: PlexA2 (Mus musculus) (UniProt P70207)
Sequence (P70207 35-1237): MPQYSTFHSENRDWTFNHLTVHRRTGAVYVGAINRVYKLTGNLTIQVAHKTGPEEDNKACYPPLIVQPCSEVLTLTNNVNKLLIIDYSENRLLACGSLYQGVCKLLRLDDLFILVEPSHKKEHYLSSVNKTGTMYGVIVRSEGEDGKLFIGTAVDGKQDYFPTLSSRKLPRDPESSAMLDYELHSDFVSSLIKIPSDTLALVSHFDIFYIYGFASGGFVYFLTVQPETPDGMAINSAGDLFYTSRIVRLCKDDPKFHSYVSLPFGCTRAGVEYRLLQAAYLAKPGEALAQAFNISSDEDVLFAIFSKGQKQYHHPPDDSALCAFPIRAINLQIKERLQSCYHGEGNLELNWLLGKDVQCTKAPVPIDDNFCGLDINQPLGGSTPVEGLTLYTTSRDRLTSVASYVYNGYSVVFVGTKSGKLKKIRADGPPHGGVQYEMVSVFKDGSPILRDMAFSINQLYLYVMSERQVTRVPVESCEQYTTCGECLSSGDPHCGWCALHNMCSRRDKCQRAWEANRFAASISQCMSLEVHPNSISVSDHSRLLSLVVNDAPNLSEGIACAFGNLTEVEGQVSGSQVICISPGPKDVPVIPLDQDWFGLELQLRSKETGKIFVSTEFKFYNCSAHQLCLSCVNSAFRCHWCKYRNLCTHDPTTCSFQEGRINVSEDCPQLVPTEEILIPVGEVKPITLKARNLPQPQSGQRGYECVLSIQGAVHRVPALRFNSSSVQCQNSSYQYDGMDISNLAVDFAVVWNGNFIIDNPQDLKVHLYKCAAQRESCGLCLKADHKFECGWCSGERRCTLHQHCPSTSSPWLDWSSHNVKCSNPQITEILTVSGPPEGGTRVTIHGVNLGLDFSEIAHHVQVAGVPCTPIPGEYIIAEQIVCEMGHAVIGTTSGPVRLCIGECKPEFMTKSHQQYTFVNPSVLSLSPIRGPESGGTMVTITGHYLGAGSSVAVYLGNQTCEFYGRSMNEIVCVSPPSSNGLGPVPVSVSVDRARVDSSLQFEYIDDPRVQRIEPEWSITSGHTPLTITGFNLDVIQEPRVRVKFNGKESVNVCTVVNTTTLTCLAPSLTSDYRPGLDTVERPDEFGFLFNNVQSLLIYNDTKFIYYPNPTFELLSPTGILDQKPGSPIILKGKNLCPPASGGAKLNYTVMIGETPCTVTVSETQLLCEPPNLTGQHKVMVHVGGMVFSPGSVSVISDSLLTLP

pKd: 4.18
Substance: Npn1 (from UniProt P97333)
